Data: patent US20130330355A1 (APEXIGEN, published 2013)
Each block holds one binder with its values, some of them ahead of it.

Tests used:
[1] = molecular target: T1, recombinant human IL-1β (human, UniProt P01584 117-269); assay: cell-based or functional assay
[2] = molecular target: T1, recombinant human IL-1β; assay: SPR
Experimental: Antigen binding affinities of anti-IL-1β antibodies were measured by surface Plasmon resonance (SPR).

[3] = molecular target: T1, recombinant human IL-1β; assay: cross-species reactivity assay, antibody titrated on IL-1β of each species, readout OD405nm
[4] = molecular target: monkey IL-1β (monkey); assay: as above
Chain of monkey IL-1β (monkey) (P48090 117-269): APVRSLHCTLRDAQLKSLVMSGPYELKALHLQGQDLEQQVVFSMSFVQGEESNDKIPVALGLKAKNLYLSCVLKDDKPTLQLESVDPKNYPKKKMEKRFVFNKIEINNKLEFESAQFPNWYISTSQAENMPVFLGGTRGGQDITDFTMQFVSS

[5] = molecular target: mouse IL-1β (mouse, UniProt P10749 118-269); assay: as above
Chain of mouse IL-1β (P10749 118-269 limits assumed): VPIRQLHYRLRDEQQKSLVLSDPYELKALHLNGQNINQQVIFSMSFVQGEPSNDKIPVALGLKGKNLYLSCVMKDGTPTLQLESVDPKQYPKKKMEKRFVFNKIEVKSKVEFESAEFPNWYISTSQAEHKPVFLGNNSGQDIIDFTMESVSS

[6] = molecular target: T1, recombinant human IL-1β; assay: method not given

IC 50, neutralization of IL-1β-induced TF-1 cell proliferation [1]: 0.54 ng/mL
Kd [2]: 0.199 nM
koff [2]: 3.8e-05 s⁻¹
kon [2]: 191000 M⁻¹ s⁻¹
B3: clone Q26 rabbit anti-IL-1β antibody (antibody, V domains shown)
VH: QSVEESGGRLVTPGTPLILTCTVSGFSLDVYTVTWVRQAPGKGLEWIGYIWSGGSASYASWAKGRFTISKTSTTVDLKISSPTTEDTATYFCARVKMISNIETFDPWGPGTLVTVSS
VL: AYDMTQTPASVEVVVGGTVTIKCQASERIYSGLAWYQQKPGQRPKLLIYRASTLASGVPSRFSGSGSGTEFTLTISDLECADAATYYCHQGVSSSDIDNVFGGGTEVVVK
notes: Recombinant rabbit IgG expressed in 293-6E cells; the rabbit constant regions are not; also called parental rabbit Q26

EC50 (read off the curve) [3]: ~600 ng/mL
EC50 (read off the curve) [4]: ~600 ng/mL
binding result [5]: no binding (tested: 10 ug/ml)
Kd [6]: 0.199 nM
B4: APX002 (humanized Q26) (antibody, V domains shown)
VH: EVQLVESGGGLVQPGGSLRLSCAVSGFSLDVYTMTWVRQAPGKGLEWIGYIWSGGSASYASWAKGRFTISKDSSKNTVYLQINSLRAEDTAVYFCARVKMISNIETFDPWGPGTLVTVSS
VL: DIQMTQSPSSVSASVGDRVTIKCQASERIYSGLAWYQQKPGKRPKLLIYRASTLASGVPSRFSGSGSGTDFTLTISSLQPEDFATYYCQQGVSSSDIDNVFGGGTKVEIK

The next lines start with the binder.

B1: Q17 rabbit anti-IL-1β antibody (antibody, V domains shown)
VH: QSVEESGGRLVTPGTPLILTCTVSGFSLDVYTVTWVRQAPGKGLEWIGYIWSGGSASYASWAKGRFTISKTSTTVDLKISSPTTEDTATYFCARVKMISNIETFDPWGPGTLVTVSS
VL: AYDMTQTPASVEVVVGGTVTIKCQASERIYSGLAWYQQKPGQRPKLLIYRASTLASGVPSRFSGSGSGTEFTLTISDLECADAATYYCHQGVSSSDIDNVFGGGTEVVVK
IC 50, neutralization of IL-1β-induced TF-1 cell proliferation [1]: 1.13 ng/mL

B2: Q34 rabbit anti-IL-1β antibody (antibody, V domains shown)
VH: QSVEESGGRLVTPGTPLILTCTVSGFSLDVYTVTWVRQAPGKGLEWIGYIWSGGSASYASWAKGRFTISKTSTTVDLKISSPTTEDTATYFCARVKMISNIETFDPWGPGTLVTVSS
VL: AYDMTQTPASVEVVVGGTVTIKCQASERIYSGLAWYQQKPGQRPKLLIYRASTLASGVPSRFSGSGSGTEFTLTISDLECADAATYYCHQGVSSSDIDNVFGGGTEVVVK
IC 50, neutralization of IL-1β-induced TF-1 cell proliferation [1]: 0.55 ng/mL
